Laboratory results: paper PMC11134608 (2023)
No end group written: not given here. fluorescein = fluorescein (FAM) fluorescent label

T1: RARA/RXRA heterodimer (ligand-binding domains) (UniProt P10276 175-421; P19793 224-462)
T1 chain 1: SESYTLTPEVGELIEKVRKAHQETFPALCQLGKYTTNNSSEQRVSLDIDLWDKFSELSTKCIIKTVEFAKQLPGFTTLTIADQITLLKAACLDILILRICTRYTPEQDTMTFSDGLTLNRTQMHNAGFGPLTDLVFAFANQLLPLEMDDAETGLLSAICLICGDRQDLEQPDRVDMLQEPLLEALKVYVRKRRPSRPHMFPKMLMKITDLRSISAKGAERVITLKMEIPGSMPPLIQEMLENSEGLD
T1 chain 2: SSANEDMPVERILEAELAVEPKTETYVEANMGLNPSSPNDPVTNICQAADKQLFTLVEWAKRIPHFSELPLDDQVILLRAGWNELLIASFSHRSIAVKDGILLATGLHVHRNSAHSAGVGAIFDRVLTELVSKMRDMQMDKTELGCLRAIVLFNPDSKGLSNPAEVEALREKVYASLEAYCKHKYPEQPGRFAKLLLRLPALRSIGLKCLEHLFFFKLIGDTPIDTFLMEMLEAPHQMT

B1: NCOA1 aa686 (peptide)
chain: ARHKILHRLLQEGS
modifications: unlabelled competitor; the tracer form carries N-terminal fluorescein. The text prints limits 687-698 for a 14-mer; the LXXLL motif at 690-694 places RHKILHRLLQEGS at 686-698, with an extra N-terminal Ala in the printed peptide

Assays:
[1] = target: T1, RARA/RXRA heterodimer (ligand-binding …); assay: FP; Kapp, competition with fluorescein-NCOA1 peptide, + ATRA
[2] = target: T1, RARA/RXRA heterodimer (ligand-binding …); assay: FP; + ATRA
[3] = target: T1, RARA/RXRA heterodimer (ligand-binding …); assay: FP; + DMSO (no ATRA)

Binder	apparent binding constant (Kapp) [1] [µM]	Kd [2] [µM]	Kd [3] [µM]
B1	3.7	–	–
fluorescein-ARHKILHRLLQEGS [Fluorescein-labelled NCOA1 peptide residues 687–698 (Flc-ARHKILHRLLQEGS)]	–	0.69	5.5
RLDLLYRLLTATN [UBR5 aa1251]	3.1	–	–
LQPYLRELLSAKD [UBR5 aa1098]	41.4	–	–
